Source: patent US20180117174A1 (GANYMED PHARMACEUTICALS, published 2018)

B1: IMAB362 (antibody, V domains shown)
VH: QVQLQQPGAELVRPGASVKLSCKASGYTFTSYWINWVKQRPGQGLEWIGNIYPSDSYTNYNQKFKDKATLTVDKSSSTAYMQLSSPTSEDSAVYYCTRSWRGNSFDYWGQGTTLTVSS
VL: DIVMTQSPSSLTVTAGEKVTMSCKSSQSLLNSGNQKNYLTWYQQKPGQPPKLLIYWASTRESGVPDRFTGSGSGTDFTLTISSVQAEDLAVYYCQNDYSYPFTFGSGTKLEIKR
notes: Chimeric human IgG1 kappa; CDR1 at 45-52); also called chim mAb362; chim mAB362
B2: IMAB362-DM4 (antibody, human IgG1, kappa, V domains shown)
VH: QVQLQQPGAELVRPGASVKLSCKASGYTFTSYWINWVKQRPGQGLEWIGNIYPSDSYTNYNQKFKDKATLTVDKSSSTAYMQLSSPTSEDSAVYYCTRSWRGNSFDYWGQGTTLTVSS
VL: DIVMTQSPSSLTVTAGEKVTMSCKSSQSLLNSGNQKNYLTWYQQKPGQPPKLLIYWASTRESGVPDRFTGSGSGTDFTLTISSVQAEDLAVYYCQNDYSYPFTFGSGTKLEIKR
modifications: DM4 coupled via SPDB linker to primary amines (lysine side chains or N-terminus) of the antibody; drug to antibody ratio 3.2; sites not stated
B3: mu mAB362 (mouse IgG2a) (antibody, V domains shown)
VH: QVQLQQPGAELVRPGASVKLSCKASGYTFTSYWINWVKQRPGQGLEWIGNIYPSDSYTNYNQKFKDKATLTVDKSSSTAYMQLSSPTSEDSAVYYCTRSWRGNSFDYWGQGTTLTVSS
VL: DIVMTQSPSSLTVTAGEKVTMSCKSSQSLLNSGNQKNYLTWYQQKPGQPPKLLIYWASTRESGVPDRFTGSGSGTDFTLTISSVQAEDLAVYYCQNDYSYPFTFGSGTKLEIK
notes: Mouse IgG2a form of mu mAB362; also called mu muAB362 (IgG2a)
B4: chim mAB294 (antibody, V domains shown)
VH: QIQLVQSGPELKKPGETVKISCKASGYTFTNYGMNWVKQAPGKGLKWMGWINTNTGEPTYAEEFKGRFAFSLETSASTAYLQINNLKNEDTATYFCARLGFGNAMDYWGQGTSVTVSS
VL: DIVMTQSPSSLTVTAGEKVTMSCKSSQSLLNSGNQKNYLTWYQQKPGQPPKLLIYWASTRESGVPDRFTGSGSGTDFTLTISSVQAEDLAVYYCQNDYSYPLTFGAGTKLELKR
B5: mu mAB362 (mouse IgG1) (antibody, V domains shown)
VH: QVQLQQPGAELVRPGASVKLSCKASGYTFTSYWINWVKQRPGQGLEWIGNIYPSDSYTNYNQKFKDKATLTVDKSSSTAYMQLSSPTSEDSAVYYCTRSWRGNSFDYWGQGTTLTVSS
VL: DIVMTQSPSSLTVTAGEKVTMSCKSSQSLLNSGNQKNYLTWYQQKPGQPPKLLIYWASTRESGVPDRFTGSGSGTDFTLTISSVQAEDLAVYYCQNDYSYPFTFGSGTKLEIK
notes: also called mu muAB362 (IgG1)
B6: IMAB362-vcMMAE (antibody, human IgG1, kappa, V domains shown)
VH: QVQLQQPGAELVRPGASVKLSCKASGYTFTSYWINWVKQRPGQGLEWIGNIYPSDSYTNYNQKFKDKATLTVDKSSSTAYMQLSSPTSEDSAVYYCTRSWRGNSFDYWGQGTTLTVSS
VL: DIVMTQSPSSLTVTAGEKVTMSCKSSQSLLNSGNQKNYLTWYQQKPGQPPKLLIYWASTRESGVPDRFTGSGSGTDFTLTISSVQAEDLAVYYCQNDYSYPFTFGSGTKLEIKR
modifications: vcMMAE (Val-Cit linker) coupled to sulfhydryl groups set on lysine amines with 2-iminothiolane; drug to antibody ratio 4.5; sites not stated
notes: also called MMAE-conjugated IMAB362

How the values were obtained:
[1] = biological target: T1, human claudin 18 splice variant 2 (CLDN18.2) (human); test: flow cytometry (Table 6); ProteinL-FITC detection; binding assay 2
T1 construct: also called claudin 18 isotype 2
Description: (§1) 100 μl of the cell suspension per well (correspond to 2×10⁵ cells/well) were transferred to a round bottom 96-well microtiter plate. […] The cells were centrifuged for 1 min at 1500 rpm and the supernatant was discarded. […] After incubation, 100 μl FACS buffer were added to each sample, the cells were centrifuged for 1 min at 1500 rpm and the supernatant was discarded. The washing step with FACS buffer was repeated twice. Finally, the cells were resuspended in 100 μl FACS buffer and binding was determined using a BD FACS Array Bioanalyzer.
(§2) Antibodies marked with the same number (1 or 2) were tested in the same binding assay.

[2] = biological target: T1, human claudin 18 splice variant 2 …; test: flow cytometry on BxPC-3~CLDN18.2 cells, antibody up to 20 µg/ml
Description: as §1

[3] = biological target: T1, human claudin 18 splice variant 2 …; test: cell-based or functional assay
[4] = biological target: T1, human claudin 18 splice variant 2 …; test: flow cytometry on NCI-N87~CLDN18.2 cells, antibody up to 20 µg/ml
Description: as §1

[5] = biological target: T1, human claudin 18 splice variant 2 …; test: flow cytometry, HEK293 cells stably expressing CLDN18.2; APC-conjugated secondary antibody; binding assay 1
[6] = biological target: T1, human claudin 18 splice variant 2 …; test: flow cytometry on NUGC-4 10cF7-5 sort 3a cells (endogenous CLDN18.2), second assay
[7] = biological target: T1, human claudin 18 splice variant 2 …; test: flow cytometry on HEK293~CLDN18.2 cells, antibody up to 20 µg/ml
Description: Binding was analyzed by flow cytometry at antibody concentrations up to 20 μg/ml. Data points (n=2 replicates) are depicted as mean±SD.
as §1
The binding specificity was analyzed by flow cytometry using HEK293 transfectants engineered to overexpress human CLDN18.2 or the highly homologous protein human CLDN18.1.

[8] = biological target: T1, human claudin 18 splice variant 2 …; test: flow cytometry (Table 6); APC-conjugated secondary antibody; binding assay 1
Description: as §1, §2

[9] = biological target: T1, human claudin 18 splice variant 2 …; test: flow cytometry, HEK293 cells stably expressing CLDN18.2; APC-conjugated secondary antibody; binding assay 2
[10] = biological target: T1, human claudin 18 splice variant 2 …; test: cell-based or functional assay; remark: listed apart in the source
[11] = biological target: T1, human claudin 18 splice variant 2 …; test: flow cytometry, HEK293 cells stably expressing CLDN18.2; APC-conjugated secondary antibody; binding assay 3
Description: as §1

[12] = biological target: T1, human claudin 18 splice variant 2 …; test: flow cytometry on NUGC-4 10cE8 cells (endogenous CLDN18.2), second assay
[13] = biological target: T1, human claudin 18 splice variant 2 …; test: cell-based or functional assay; remark: listed apart in the source
[14] = biological target: T1, human claudin 18 splice variant 2 …; test: flow cytometry on BxPC-3~CLDN18.2 cells, second assay
[15] = biological target: T1, human claudin 18 splice variant 2 …; test: flow cytometry, HEK293 cells stably expressing CLDN18.2; ProteinL-FITC detection; binding assay 4
[16] = biological target: T1, human claudin 18 splice variant 2 …; test: flow cytometry on NUGC-4 10cF7-5 sort 3a cells (endogenous CLDN18.2), antibody up to 20 µg/ml
Description: as §1

[17] = biological target: T1, human claudin 18 splice variant 2 …; test: flow cytometry on NUGC-4 10cE8 cells (endogenous CLDN18.2), antibody up to 20 µg/ml
Description: as §1
Binding properties were tested at different antibody concentrations in a range of 0.1 to 20 μg/ml (FIG. 4, Table 8).

[18] = biological target: T1, human claudin 18 splice variant 2 …; test: cell-based or functional assay; remark: listed apart in the source
[19] = biological target: T1, human claudin 18 splice variant 2 …; test: flow cytometry, HEK293 cells stably expressing CLDN18.2; ProteinL-FITC detection; binding assay 4; normalized to IMAB362
Description: as §1

[20] = biological target: T1, human claudin 18 splice variant 2 …; test: flow cytometry (Table 6); ProteinL-FITC detection; normalized to IMAB362
Description: as §1

[21] = biological target: T1, human claudin 18 splice variant 2 …; test: flow cytometry (Table 6); ProteinL-FITC detection
Description: as §1

[22] = biological target: T1, human claudin 18 splice variant 2 …; test: flow cytometry (Table 6); ProteinL-FITC detection; binding assay 2; normalized to IMAB362
[23] = biological target: T1, human claudin 18 splice variant 2 …; test: flow cytometry, HEK293 cells stably expressing CLDN18.2; APC-conjugated secondary antibody; binding assay 3; normalized to IMAB362
Description: as §1

| Binder | EC50 [1] [µg/mL] | EC50 [2] [µg/mL] | Cell viability EC50 [ng/ml], Fab-ZAP endocytosis assay on HEK293~CLDN18.2 cells [3] [ng/mL] | EC50 [4] [µg/mL] | EC50 [6] [µg/mL] | EC50 [7] [µg/mL] | ADCC EC50 [ng/ml], NUGC-4 10cF7_5 sort3a p3151#10 cells, PBMC of Donor 1 [10] [ng/mL] | ADCC EC50 [ng/ml], NUGC-4 10cF7_5 sort3a p3151#10 cells, PBMC of Donor 2 [10] [ng/mL] | EC50 [11] [µg/mL] | Max. binding [MFI] [11] [MFI] | EC50 [12] [µg/mL] | CDC EC50 [ng/ml], KATO-III FGF-BP#12 adM p3151#25 cells [13] [ng/mL] | CDC EC50 [ng/ml], NUGC-4 10cF7_5 sort3a p3151#10 cells [13] [ng/mL] | EC50 [14] [µg/mL] | EC50 [15] [µg/mL] | Max. binding [MFI] [15] [MFI] | EC50 [16] [µg/mL] | EC50 [17] [µg/mL] | Cell viability EC50 [%] normalized to IMAB362, Fab-ZAP endocytosis assay [3] [%] | Max. viability reduction normalized [%], Fab-ZAP endocytosis assay [3] [%] | other results |
| --- | --- | --- | --- | --- | --- | --- | --- | --- | --- | --- | --- | --- | --- | --- | --- | --- | --- | --- | --- | --- | --- |
| B1 | 1.24 | 0.104 | 11 | 0.31 | 2.38 | 1.12 | 1230 | 142 | 0.652 | 7950 | 3.67 | 19300 | 28000 | 0.113 | 1.24 | 5320 | – | – | – | – | Cell viability EC50 [ng/ml], Fab-ZAP endocytosis assay on HEK293~CLDN18.2 cells (second assay) [3]: 13 ng/mL; EC50 [5]: 0.52 µg/mL; EC50 [8]: 0.584 µg/mL; Max. binding [MFI] [8]: 18500 MFI; EC50 [9]: 0.584 µg/mL |
| B2 | – | 0.507 | – | 0.274 | 3.91 | 1.47 | 1150 | 217 | – | – | 7.49 | 6440 | 15800 | 0.425 | – | – | 2.6 | 3.05 | – | – | EC50 [ng/ml] of reduction of cell viability (XTT, 72 h), BxPC-3~CLDN18.2 cells [18]: 43 ng/mL; EC50 [ng/ml] of reduction of cell viability (XTT, 72 h), BxPC-3~CLDN18.2 cells, second assay [18]: 54 ng/mL; EC50 [ng/ml] of reduction of cell viability (XTT, 72 h), NCI-N87~CLDN18.2 cells [18]: 75 ng/mL; EC50 [ng/ml] of reduction of cell viability (XTT, 72 h), NUGC-4 10cE8 cells [18]: 372 ng/mL; EC50 [ng/ml] of reduction of cell viability (XTT, 72 h), NUGC-4 10cF7-5 sort 3a cells [18]: 155 ng/mL |
| B3 | – | – | ~30 | – | – | – | – | – | – | – | – | – | – | – | 0.654 | 4880 | – | – | 231 | 66 | EC50 normalized [%] [19]: 53%; EC50 normalized [%] [20]: 345%; EC50 [21]: 4.29 µg/mL |
| B4 | 5.7 | – | 10 | – | – | – | – | – | – | – | – | – | – | – | – | – | – | – | 91 | 86 | EC50 normalized [%] [22]: 459% |
| B5 | – | – | 2.2 | – | – | – | – | – | 2.24 | 8830 | – | – | – | – | 4.29 | 5910 | – | – | 17 | 66 | EC50 normalized [%] [19]: 345%; Max. binding normalized [%] [19]: 111%; EC50 normalized [%] [23]: 343%; Max. binding normalized [%] [23]: 111%; EC50 normalized [%] [20]: 53%; EC50 [21]: 0.654 µg/mL |
| B6 | – | 0.183 | – | 0.103 | 4.05 | 1.59 | 1080 | 275 | – | – | 5.46 | 7240 | 28300 | 0.261 | – | – | 2.52 | 2.83 | – | – | EC50 [ng/ml] of reduction of cell viability (XTT, 72 h), BxPC-3~CLDN18.2 cells [18]: 48 ng/mL; EC50 [ng/ml] of reduction of cell viability (XTT, 72 h), BxPC-3~CLDN18.2 cells, second assay [18]: 43 ng/mL; EC50 [ng/ml] of reduction of cell viability (XTT, 72 h), NCI-N87~CLDN18.2 cells, second assay [18]: 180 ng/mL; EC50 [ng/ml] of reduction of cell viability (XTT, 72 h), NUGC-4 10cE8 cells [18]: 631 ng/mL; EC50 [ng/ml] of reduction of cell viability (XTT, 72 h), NUGC-4 10cF7-5 sort 3a cells [18]: 338 ng/mL |
